Measured values from publication PMC3593554.

Biological target: formyl peptide receptor (FPR1) on U87 astrocytoma cells (human (endogenous in U87)) (UniProt P21462)
Assay: flow cytometry on cells

UniProt P21462, sequence (P21462 whole entry): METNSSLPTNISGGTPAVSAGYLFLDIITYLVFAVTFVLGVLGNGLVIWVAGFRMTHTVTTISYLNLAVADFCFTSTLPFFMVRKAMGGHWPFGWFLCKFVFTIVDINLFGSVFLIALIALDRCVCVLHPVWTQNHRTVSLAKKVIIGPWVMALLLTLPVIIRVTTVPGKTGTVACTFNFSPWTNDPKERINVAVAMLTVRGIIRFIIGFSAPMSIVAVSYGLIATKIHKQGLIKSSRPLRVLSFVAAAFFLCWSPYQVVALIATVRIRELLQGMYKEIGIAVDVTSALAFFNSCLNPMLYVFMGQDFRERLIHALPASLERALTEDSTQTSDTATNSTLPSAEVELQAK

Substance: Chemotaxis Inhibitory Protein of S. aureus (CHIPS) (from UniProt A6QIG7 29-149) (natural protein)
- percent inhibition of fMLF-FITC binding at 100 ug/ml CHIPS: 81%
